Changes are numbered by the printed parent chain.
What was measured:
[1] = target: T1, IL-33 mutant protein S52A (human, UniProt O95760 112-270); test: ELISA as Example 9; row S52A against WT-2
T1 construct: Prokaryotic expression
T1 chain: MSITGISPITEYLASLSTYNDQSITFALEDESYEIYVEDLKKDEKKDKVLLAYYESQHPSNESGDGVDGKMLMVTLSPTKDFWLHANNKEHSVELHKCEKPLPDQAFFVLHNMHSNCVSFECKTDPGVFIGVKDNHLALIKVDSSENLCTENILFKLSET
Protocol: (§1) SA protein was diluted to 2 μg/mL to coat ELISA plate at 100 μL/well overnight at 4° C. The plate was washed with PBST (PBS containing 0.05% Tween20) for 3 times, and blocked with 2% BSA prepared in PBS at 200 μL/well, at room temperature for 2 h. After the plate was washed twice with PBST, IL-33-his-biotin protein was diluted to 1 μg/mL with 1% BSA prepared in PBST, and was added to ELISA plate at 100 μL/well. The plate was incubated at room temperature for 1 h, and each monoclonal antibody was diluted with 1% BSA prepared in PBST in a 3-fold gradient. The highest concentration of antibody was 10 μg/mL, and the antibody was diluted for 12 gradients. Each diluted monoclonal antibody was added to ELISA wells with 100 μL/well, and the plate was incubated at room temperature for 1 h. Each sample was added to duplicate wells in parallel. The plate was washed with PBST for 3 times, and HRP-anti human IgG Fc secondary antibody prepared with PBST was diluted at an appropriate ratio, and was added to ELISA wells at 100 μL/well. […] Each reaction solution was shaken uniformly and OD450 nm was read on a microplate reader. The data was analyzed and EC₅₀ was calculated.
(§2) Subsequently, according to the experimental method of Example 9, the affinity of the above mutant proteins to 874F7-Hu1 was determined, and IL-33 proteins (WT-1, WT-2, WT-3, and WT-4) without any mutation were set as controls.

Human IL-33-his = target: T2, Human IL-33-his (human, UniProt O95760 112-270, biotinylated with EZ-Link NHS-Biotin where used as IL-33-his-biotin); test: SPR Biacore 8K, antibody captured on Protein A/G chip, IL-33-his as analyte, 1:1 model
T2 construct: Used plain (SPR, cell assays) and biotinylated (ELISA); also called IL-33-his-biotin
T2 sequence: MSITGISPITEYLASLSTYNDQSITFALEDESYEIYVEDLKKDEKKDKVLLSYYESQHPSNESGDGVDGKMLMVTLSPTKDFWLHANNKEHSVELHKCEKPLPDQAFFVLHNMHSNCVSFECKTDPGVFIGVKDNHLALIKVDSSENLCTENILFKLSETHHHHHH
Protocol: A chip with covalently coupled Protein A/G (purchased from GE Healthcare, catalog number BR-1005-30) was used to capture each antibody to be tested, and the relevant operating parameters were as follows: The antibody concentration was […], the contact time was 75 s, the flow rate was […], and the regeneration contact time was 30 s. The IL-33-his antigen was diluted with HBS-EP pH7.4 buffer solution (purchased from GE Healthcare, catalog number BR-1006-69). The maximum concentration was 50 nM, and diluted to 0.39 nM by two-fold dilution. Duplicate wells and 0 concentration point well were set, and 6M guanidine hydrochloride solution was used as the regeneration buffer. The sample was injected on Biacore 8K according to the following parameters, the binding time was 180 s, the dissociation time was 900 s, the flow rate was 30 μL/min, and the regeneration contact time was 30 s. After running, Biacore 8K Evaluation Software was used to analyze the data according to the “1:1 binding kinetics model”, and the binding kinetics parameters of each antibody to IL-33 were obtained.

[2] = target: T3, IL-33 mutant protein K48A (human, UniProt O95760 112-270); test: ELISA as Example 9; row K48A
T3 construct: Prokaryotic expression
T3 chain: T1 chain with K48A, A52S
Protocol: as §1, §2

[3] = target: T4, IL-33 mutant protein V49A (human, UniProt O95760 112-270); test: ELISA by the method of Example 9 with the IL-33 mutant protein on the plate, 874F7-Hu1 in serial dilution, HRP anti-human IgG Fc, absorbance 450 nm
T4 construct: Prokaryotic expression
T4 chain: T1 chain with V49A, A52S

[4] = target: T5, IL-33 mutant protein V67A (human, UniProt O95760 112-270); test: ELISA as Example 9; row V67A
T5 construct: Prokaryotic expression
T5 chain: T1 chain with A52S, V67A
Protocol: as §1, §2

B1: 874F7-Hu1 (antibody, human IgG4 S228P, kappa)
heavy: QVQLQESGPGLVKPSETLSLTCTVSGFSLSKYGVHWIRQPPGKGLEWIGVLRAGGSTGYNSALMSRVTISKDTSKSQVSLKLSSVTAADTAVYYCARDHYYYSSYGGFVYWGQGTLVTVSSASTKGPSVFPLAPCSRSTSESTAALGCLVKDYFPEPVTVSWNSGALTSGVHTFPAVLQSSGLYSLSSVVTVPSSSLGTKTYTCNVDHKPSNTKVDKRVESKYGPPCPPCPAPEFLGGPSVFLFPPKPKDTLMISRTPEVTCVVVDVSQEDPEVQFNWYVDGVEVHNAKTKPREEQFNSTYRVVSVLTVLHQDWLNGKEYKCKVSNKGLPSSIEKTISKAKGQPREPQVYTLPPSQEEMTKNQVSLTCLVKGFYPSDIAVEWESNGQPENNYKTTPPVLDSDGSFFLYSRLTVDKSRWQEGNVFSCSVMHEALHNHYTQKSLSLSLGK
light: DIQMTQSPSSVSASVGDRVTITCLASQTIGAWLAWYQQKPGKSPKLLIYAATRLADGVPSRFSGSGSGTDFTLTISSLQPEDFATYYCQQLDSSPYTFGQGTKVEIKRTVAAPSVFIFPPSDEQLKSGTASVVCLLNNFYPREAKVQWKVDNALQSGNSQESVTEQDSKDSTYSLSSTLTLSKADYEKHKVYACEVTHQGLSSPVTKSFNRGEC
notes: also called 874F7-Hul; humanized antibody 874F7-Hu1
- Affinity decline ratio [1]: 14.6 fold
- Kd (Human IL-33-his): 2.82 nM
- koff (Human IL-33-his): 0.00057 s⁻¹
- kon (Human IL-33-his): 202000 M⁻¹ s⁻¹
- EC50 [2]: 0.49 nM
- EC50 (read off the curve) [3]: ~3 nM
- EC50 [4]: 0.11 nM
